Results on 13 sequences are retold here after the Immune Epitope Database (IEDB).

The target in assay [1] is HLA-A*02:01. Briefly: IEDB peptide-MHC binding, purified MHC/competitive/fluorescence; ≥ and ≤ were set here for values at or beyond the usual limits of such assays.
A further assay concerns the target HLA-B*07:02. The assay is described as above.
In assay [2] the target is HLA-B*15:01. Described as above.
The target in assay [3] is HLA-A*02:03. Briefly: IEDB peptide-MHC binding, purified MHC/direct/fluorescence; filed as Kd, often an IC50 or EC50 that approximates it; ≥ and ≤ were set here for values at or beyond the usual limits of such assays.
In the next assay the target is HLA-A*02:11. Described as above.
For another assay, the target named is HLA-A*02:12. Described as above.
A further assay has as its target HLA-A*02:16. The description is as above.
The target in the next assay is HLA-A*02:19. The description is as above.
Assay [4] concerns the target HLA-A*03:01. The description is as above.
Another assay deals with HLA-A*24:03. Described as above.
The target in another assay is HLA-A*29:02. The assay is described as above.
Assay [5] concerns the target HLA-A*68:02. The assay is described as above.
The target in a further assay is HLA-B*08:01. Described as above. The note with it: source organism: Rio Mamore hantavirus.
The target in assay [6] is HLA-A*02:01. Briefly: IEDB peptide-MHC binding, purified MHC/competitive/fluorescence; filed as Kd, often an IC50 or EC50 that approximates it; ≥ and ≤ were set here for values at or beyond the usual limits of such assays.
A further assay has as its target HLA-A*26:01. The description is as above.
A further assay has as its target HLA-A*69:01. Described as above.
In the next assay the target is HLA-B*18:01. Described as above.
In another assay the target is HLA-B*27:03. Described as above.
The target of the next assay is HLA-B*39:01. The description is as above.
The next assay has as its target HLA-B*51:01. The assay is described as above.
The target in the next assay is HLA-B*57:01. The description is as above.
Assay [7] deals with HLA-A*03:01. Briefly: IEDB peptide-MHC binding, purified MHC/competitive/fluorescence; ≥ and ≤ were set here for values at or beyond the usual limits of such assays.
The next assay concerns the target HLA-A*11:01. The assay is described as above.
The next assay has as its target HLA-A*01:01. Description: IEDB peptide-MHC binding, purified MHC/direct/fluorescence; filed as Kd, often an IC50 or EC50 that approximates it; ≥ and ≤ were set here for values at or beyond the usual limits of such assays. The note with it: source organism: Reston ebolavirus - Reston.
A further assay addresses HLA-A*23:01. Described as above.
Assay [8] concerns the target HLA-B*15:01. Briefly: IEDB peptide-MHC binding, purified MHC/competitive/fluorescence; filed as Kd, often an IC50 or EC50 that approximates it; ≥ and ≤ were set here for values at or beyond the usual limits of such assays.
The target of the next assay is HLA-B*15:17. Described as above.
The target of another assay is HLA-B*46:01. Described as above.
In assay [9] the target is HLA-A*03:01. The assay is described as above. The note with it: source organism: Orthohantavirus sinnombreense.
A further assay concerns the target HLA-A*31:01. The assay is described as above. The note with it: source organism: Orthohantavirus sinnombreense.
In the next assay the target is HLA-A*26:02. Described as above. The note with it: source organism: Human immunodeficiency virus 1.
Assay [10] concerns the target HLA-A*68:02. Described as above. The note with it: source organism: Human immunodeficiency virus 1.
The target of assay [11] is HLA-A*02:03. The assay is described as above. The conditions noted are these: source organism: Human immunodeficiency virus 1.
A further assay concerns the target HLA-A*24:02. Briefly: IEDB peptide-MHC binding, purified MHC/competitive/fluorescence; ≥ and ≤ were set here for values at or beyond the usual limits of such assays.
Assay [12] has as its target HLA-A*02:01. Briefly: IEDB peptide-MHC binding, purified MHC/direct/fluorescence; filed as Kd, often an IC50 or EC50 that approximates it; ≥ and ≤ were set here for values at or beyond the usual limits of such assays. The conditions noted are these: source organism: Sudan ebolavirus - Maleo (1979).
The mark [13] stands for this setting: source organism: Zaire ebolavirus.
Where [14] appears, read: source organism: Limestone Canyon virus.
Setting [15] is: source organism: Lechiguanas virus.
The mark [16] stands for this setting: source organism: Reston ebolavirus.
Where [17] appears, read: source organism: Orthohantavirus sinnombreense.
Setting [18] is: source organism: Human immunodeficiency virus 1.
Setting [19] is: source organism: Sudan ebolavirus.
[20] abbreviates: source organism: Vaccinia virus.

Some results are limits rather than exact numbers.

What is called IC50 is the concentration that gives 50% inhibition. The low end stands for greater potency, the high end for weaker potency. Broadly, the Kd is the equilibrium constant for the complex coming apart. Low values mean higher affinity, high ones lower affinity.

Consider FIHIPGDTL, for which the IC50 in the assay with HLA-A*02:01 [1] (source organism: Variola virus) is 2.55 µM; in the assay with HLA-B*07:02 (source organism: Variola virus), 47 µM; with HLA-B*15:01 [2] (source organism: Variola virus) it was at least 80.7 µM.

With TPSATTAAG, the IC50 with HLA-B*07:02 (setting [13]) is at least 144 µM.

As for KLKSVGKAY, the Kd in the assay with HLA-A*02:03 [3] (setting [14]) is at least 20 µM; with HLA-A*02:11 (setting [14]), at least 20 µM; with HLA-A*02:12 (setting [14]), at least 20 µM; in the assay with HLA-A*02:16 (setting [14]), at least 20 µM; with HLA-A*02:19 (setting [14]) it was at least 20 µM; with HLA-A*03:01 [4] (source organism: Rio Mamore hantavirus) it was 0.536 µM. Besides, the Kd in the assay with HLA-A*24:03 (setting [14]), with HLA-A*29:02 (setting [14]), with HLA-A*68:02 [5] (setting [14]), with HLA-B*08:01, with HLA-A*02:01 [6] (setting [15]) and with HLA-A*26:01 (setting [15]) was at least 20 µM each time. The Kd in the assay with HLA-A*69:01 (setting [15]), in the assay with HLA-B*18:01 (setting [15]), with HLA-B*27:03 (setting [15]), with HLA-B*39:01 (setting [15]), with HLA-B*51:01 (setting [15]) and with HLA-B*57:01 (setting [15]) was at least 20 µM in each case.

For TLRKERLAK, the IC50 with HLA-A*03:01 [7] (setting [13]) was 0.509 µM; with HLA-A*11:01 (setting [13]), 4.25 µM; in the assay with HLA-B*07:02 (setting [13]), at least 119 µM; with HLA-B*15:01 [2] (setting [13]) it was at least 171 µM.

With TTDDSTSYY, the Kd was 0.0122 µM in the assay with HLA-A*01:01; at least 20 µM with HLA-A*02:03 [3] (setting [16]); at least 20 µM with HLA-A*02:11 (setting [16]); at least 20 µM with HLA-A*02:12 (setting [16]); at least 20 µM in the assay with HLA-A*02:16 (setting [16]); at least 20 µM in the assay with HLA-A*02:19 (setting [16]). Moreover, the Kd with HLA-A*03:01 [4] (setting [16]), with HLA-A*23:01 (setting [16]), with HLA-A*24:03 (setting [16]), with HLA-A*68:02 [5] (setting [16]), with HLA-A*02:01 [6] (setting [16]) and with HLA-A*26:01 (setting [16]) was at least 20 µM throughout. Besides, the Kd in the assay with HLA-A*69:01 (setting [16]), with HLA-B*15:01 [8] (setting [16]), with HLA-B*15:17 (setting [16]), in the assay with HLA-B*18:01 (setting [16]), with HLA-B*27:03 (setting [16]) and with HLA-B*39:01 (setting [16]) was at least 20 µM throughout. The Kd in the assay with HLA-B*46:01 (setting [16]), with HLA-B*51:01 (setting [16]) and in the assay with HLA-B*57:01 (setting [16]) was at least 20 µM throughout.

Sequence TGFGTNETE showed an IC50 with HLA-B*07:02 (setting [13]) of at least 221 µM.

Take RTLGVFRYK: the Kd with HLA-A*02:03 [3] (setting [14]), with HLA-A*02:12 (setting [14]), in the assay with HLA-A*02:16 (setting [14]), in the assay with HLA-A*02:19 (setting [14]), in the assay with HLA-A*29:02 (setting [14]) and with HLA-A*68:02 [5] (setting [14]) was at least 20 µM each time. The Kd with HLA-A*03:01 [9] was 0.109 µM; in the assay with HLA-A*26:01 (setting [17]), at least 20 µM; with HLA-A*31:01 it was 0.0062 µM; in the assay with HLA-A*69:01 (setting [17]), at least 20 µM; with HLA-B*15:01 [8] (setting [17]) it was at least 20 µM; with HLA-B*18:01 (setting [17]), at least 20 µM. Further, the Kd with HLA-B*39:01 (setting [17]), in the assay with HLA-B*46:01 (setting [17]) and in the assay with HLA-B*51:01 (setting [17]) was at least 20 µM each time.

With DIKDTKEAL, the Kd with HLA-A*02:01 [6] (setting [18]) was at least 20 µM; with HLA-A*26:02 it was at least 20 µM; with HLA-A*68:02 [10] it was 1.7 µM; with HLA-B*39:01 (setting [18]), at least 20 µM.

Take EELKSLFNTI: the Kd came to 1.54 µM with HLA-A*02:03 [11] and 1.18 µM with HLA-A*68:02 [10].

As to TSPRMLTPI, the IC50 with HLA-A*02:01 [1] (setting [13]) is at least 684 µM; with HLA-A*24:02 (setting [13]), 3.05 µM; with HLA-B*07:02 (setting [13]) it was at least 260 µM.

Regarding SMHYKLDEV, the Kd with HLA-A*02:01 [12] is 0.0151 µM; with HLA-A*03:01 [4] (setting [13]), at least 20 µM; with HLA-A*23:01 (setting [13]), at least 20 µM; with HLA-A*24:03 (setting [13]) it was at least 20 µM; in the assay with HLA-A*29:02 (setting [13]), at least 20 µM; in the assay with HLA-A*26:01 (setting [13]), at least 20 µM. For the same sequence, the Kd in the assay with HLA-A*69:01 (setting [13]), in the assay with HLA-B*15:01 [8] (setting [13]), in the assay with HLA-B*15:17 (setting [13]), in the assay with HLA-B*18:01 (setting [13]), with HLA-B*27:03 (setting [13]) and in the assay with HLA-B*39:01 (setting [13]) was at least 20 µM in each case. Further, the Kd in the assay with HLA-B*46:01 (setting [13]), in the assay with HLA-B*51:01 (setting [13]) and in the assay with HLA-B*57:01 (setting [13]) was at least 20 µM throughout.

RPHTPQFLF: the IC50 with HLA-A*24:02 (setting [19]) worked out at 1.03 µM; in the assay with HLA-B*07:02 (setting [19]), 1.46 µM.

As to YIKNIGNTK, the IC50 with HLA-A*03:01 [7] (setting [20]) was 6.51 µM; with HLA-A*11:01 (setting [20]), 30.5 µM; with HLA-B*07:02 (setting [20]), at least 745 µM.
